These results are taken from PMC8043444 (bioRxiv, 2021).

Test [1] addresses T1, SARS-CoV-2 RBD WT for SPR binding assays (SARS-CoV-2, UniProt P0DTC2). Kind of test: SPR. (In general: SPR reads the build-up and loss of mass on a sensor chip optically.)
The target in test [2] is T1, SARS-CoV-2 RBD WT for SPR binding assays. Kind of test: cell-based or functional assay.
Test [3] concerns the target SARS-CoV-2 RBD WT for crystallization (SARS-CoV-2, UniProt P0DTC2, deglycosylated by overnight incubation with EndoH glycosidase). Kind of test: crystal structure.

Usually Kd stands for the free concentration of one partner at which half of the binding sites on the other are occupied at equilibrium, for simple one-to-one binding. Read a low Kd as tighter binding.

B1: S2H97 IgG1 (LS) (antibody, V domains shown)
VH: QVRLVQSGAEVKKSGESLKISCKGSGYSFTSYWIGWVRQMPGKGLEWMGIIYPGDSDTRYSPSFQGQVTISADKSISTVYLQWSSLKASDTAMYYCARQWSHYTYDYYYWGQGTLVTISS
VL: QSVLTQPASVSGSPGQSITISCTGISSDVGGYNSVSWYQQHPGKAPKLMIYDVTNRPSGVSNRFSGSKSGNTASLTISGLQAEDEADYYCSSYTSSSTPPYVFGTGTKVSVL
Regarding B1, the Kd in test [1] was 0.04 nM. Moreover, the “neutralisation of authentic SARS-CoV-2-Nluc on Vero E6 cells (IF/luc), IC90” value (shortened to “neutralisation”) in test [2] stood at 3290.

B2: S2H97 Fab (Fab, V domains shown)
VH: QVRLVQSGAEVKKSGESLKISCKGSGYSFTSYWIGWVRQMPGKGLEWMGIIYPGDSDTRYSPSFQGQVTISADKSISTVYLQWSSLKASDTAMYYCARQWSHYTYDYYYWGQGTLVTISS
VL: QSVLTQPASVSGSPGQSITISCTGISSDVGGYNSVSWYQQHPGKAPKLMIYDVTNRPSGVSNRFSGSKSGNTASLTISGLQAEDEADYYCSSYTSSSTPPYVFGTGTKVSVL
As for B2, in test [1], binding was put at a Kd of 0.03 nM. That is a picomolar value.

B3: S304 IgG1 (LS) (antibody, V domains shown)
VH: EVQLVESGGGLVQPGGSLRLSCAASGFTFSSYDMHWVRQTTGKGLEWVSTIGTAGDTYYPDSVKGRFTISREDAKNSLYLQMNSLRAGDTAVYYCARGDSSGYYYYFDYWGQGTLLTVSS
VL: DIEMTQSPSSLSAAVGDRVTITCRASQSIGSYLNWYQQKPGKAPKLLIYAASSLQSGVPSRFSGSGSGTDFTLTISSLQPEDFAIYYCQQSYVSPTYTFGPGTKVDIK
Turning to B3, in test [1], the dissociation constant (Kd) came out at 0.4 nM.

B4: S2E12 IgG1 (LS) (antibody, V domains shown)
VH: not shown
VL: DIVLTQTPGTLSLSPGERATLSCRASQSVSSSYLAWYQQKPGQAPRLLIYGASSRATGIPDRFSGSGSGTDFTLTISRLEPEDFAVYYCQQYVGLTGWTFGQGTKVEIK
As to B4, the Kd in test [1] was found to be 0.7 nM. In addition, the “neutralisation” value in test [2] came to 14.

B5: S2D106 IgG1 (LS) (antibody, V domains shown)
VH: EVQLVQSGAEVKKPGSSVKVSCKASGGPFSSSAISWVRQAPGQGLEWMGGIIPMVGTANYAQKFQGRVTITADESTSTAYMELSSLRSEDTAVYYCARDSRYCSGGSCYSVWFDPWGQGTLVTVSS
VL: not shown
As for B5, the affinity in test [1], expressed as Kd, was 0.04 nM. For the same molecule, the “neutralisation” value in test [2] worked out at 23.6.

B6: S2D106 Fab (Fab, V domains shown)
VH: EVQLVQSGAEVKKPGSSVKVSCKASGGPFSSSAISWVRQAPGQGLEWMGGIIPMVGTANYAQKFQGRVTITADESTSTAYMELSSLRSEDTAVYYCARDSRYCSGGSCYSVWFDPWGQGTLVTVSS
VL: not shown
Molecule B6 returned a Kd in test [1] of 0.05 nM.

B7: S2X35 IgG1 (LS) (antibody, V domains shown)
VH: QVQLVQSGAEVKKPGASVKVSCKASGYTFTNYGISWVRQAPGQGLEWMGWISAYKGNTNYAQKLQGRVTMTTDTSTSTAYMELRSLRSDDTAVYYCARPDYQVLGYDFWIGYYGMDVWGQGTTVIVSS
VL: QSVLTQPPSVSGAPGQRVTISCTGSSSNIGAGYDVHWYQQLPGTAPKLLIYGNTNRPSGVPDRFSGSKSGTSASLAITGLQAEDEADYYCQSYDSSLSGSEVVFGGGTKLTVL
Turning to B7, in test [1], the Kd is 0.06 nM. Also, in test [2], the “neutralisation” value is 592.

B8: S2X259 Fab (Fab, V domains shown)
VH: QVQLVQSGAEVKKPGSSVKVSCKASGGIFNTYTISWVRQAPGQGLEWMGRIILMSGMANYAQKIQGRVTITADKSTSTAYMELTSLRSDDTAVYYCARGFNGNYYGWGDDDAFDIWGQGTLVTVYS
VL: QTVLTQPPSVSGAPGQRVTISCTGSNSNIGAGYDVHWYQQLPGTAPKLLICGNSNRPSGVPDRFSGSKSGTSASLAITGLQAEDEADYYCQSYDSSLSGPNWVFGGGTKLTVL
Regarding B8, the binding result in test [3] was “binds”.
